Here are results for 167 variants from the RNAGym collection of RNA variant scans (doi:10.7554/elife.80360).

Sequences and labels used below:
B1: HDV Ribozyme (parent)
chain: GGCCGGCAUGGUCCCAGCCUCCUCGCUGGCGCCGGCUGGGCAACAUUCCGAGGGGACCGUCCCCUCGGUAAUGGCGAAUGGGACCCA

The variants in this data set derive from B1. The data set is described as follows: self-cleavage, relative activity (ratio to wild type); higher = more cleavage; co-transcriptional.
For the variant C32U C58U, the self-cleavage came out at 0.831. With C32U G40A, the self-cleavage worked out at 0.987.

As to C32U G67A, the self-cleavage came out at 0.857. For C33A U79G, the self-cleavage was 0.214.

In the case of C33A C58G, the self-cleavage is 0.332. Take C33U C64G: the self-cleavage was 0.736. For the variant C33A A45G, the self-cleavage was determined as 0.0536. As for C32U A56G, the figure is 0.872; as for C33G G34A, 0.0831; as for C33U C36A, 0.151. C33G G54C: the self-cleavage was found to be 0.143. Then C33A A78C, with 0.0997; and C33A C86G, with 0.277; and C33A C86U, with 0.244. Then C33G A70G, with 0.104. Then C32G G54U, with 0.153; and C32G C57A, with 0.106; and C32U G38U, with 0.205.

In the case of C32U G53A, the self-cleavage was 1.01. As for C32U U46A, the figure is 0.573; as for C33G G80A, 0.0631; as for C33G G80U, 0.0528. As for C32U G68C, the figure is 0.803; as for C32G G67C, 0.149; as for C32U A83G, 0.501. Turning to C32U A83C, the self-cleavage came out at 0.232. Then C32G C41A, with 0.0354. Consider C33U C44A, for which the self-cleavage was 0.499.

Take C32U C48G: the self-cleavage was determined as 1.04. As for C32U C48A, the figure is 1.04; as for C32U C66U, 0.926. As to C33G U72A, the self-cleavage was 0. With C33G U72G, the self-cleavage stood at 0. On to C33G A51U, for which the self-cleavage was 0.0811. In the case of C33G A51C, the self-cleavage is 0.246. As for C33G G52U, the figure is 0.119.

For the variant C33A U72G, the self-cleavage came out at 0.122. Then C33G C85G, with 0.151; and C33A C41U, with 0.163; and C32G U47A, with 0.244.

Take C33U A45U: the self-cleavage is 0.57.

On to C32G C36A, for which the self-cleavage worked out at 0.125. Regarding C32U C84A, the self-cleavage is 0.753. As for C32U G82U, the figure is 0.256; as for C32G G80C, 0. Take C33U C61A: the self-cleavage turned out to be 0.721. In the case of C32G C49G, the self-cleavage turned out to be 0.135. Then C32U G55A, with 0.967; and C32G U46C, with 0.0978. C32G C33U: the self-cleavage amounted to 0.115. Turning to C33A G34C, the self-cleavage was found to be 0.108. On to C32U G74C, for which the self-cleavage was found to be 0.224. On to C33A A42U, for which the self-cleavage is 0.0314. For C32G G34A, the self-cleavage worked out at 0.0875. As to C32G G34U, the self-cleavage is 0.0415. As to C33A C75A, the self-cleavage was determined as 0.122.

With C33A C75U, the self-cleavage was 0.0563.

As for C33U A78G, the self-cleavage came to 0.228. Then C33A U60G, with 0.116; and C32U C44G, with 0.374; and C33A U46G, with 0.0615. In the case of C33G G40C, the self-cleavage is 0.138. For the variant C32G G39C, the self-cleavage came out at 0.116.

For C32G G39U, the self-cleavage is 0.0563. On to C33G G76U, for which the self-cleavage amounted to 0.116.

C32U C49A: the self-cleavage worked out at 0.683. Then C33G U79C, with 0.0875; and C33G U79A, with 0.0755; and C33U A71G, with 0.886. Then C32G U37C, with 0.264. Consider C32U G80U, for which the self-cleavage turned out to be 0.145. For the variant C33U C49G, the self-cleavage stood at 0.855.

Turning to C32U C57A, the self-cleavage is 0.817.

With C32U C57U, the self-cleavage is 0.843. As for C32U C57G, the figure is 0.975; as for C33G G59C, 0.201.

Take C32U G35C: the self-cleavage is 0.0573.

In the case of C32U G50A, the self-cleavage was determined as 0.862. Then C32U G50U, with 0.844; and C32U C64G, with 0.875; and C33A G80A, with 0.123. Then C32U C75G, with 0.17; and C33U A83G, with 0.511; and C33U A83U, with 0.415. Then C33A U47C, with 0.0692; and C33A U47A, with 0.0378; and C32U C62G, with 0.727. Consider C33A G68U, for which the self-cleavage is 0.102. As to C32U U69C, the self-cleavage was 1.19. On to C32G U65A, for which the self-cleavage is 0.0545.

As for C32G C44G, the self-cleavage turned out to be 0.0426. C33U C75U: the self-cleavage was found to be 0.0817.

Regarding C33U C75G, the self-cleavage came to 0.222. As for C32U U60A, the self-cleavage was found to be 0.782.

As to C33A C57G, the self-cleavage worked out at 0.332. As for C33G G74C, the figure is 0.237. For C33G C64U, the self-cleavage amounted to 0.306. In the case of C32G C75A, the self-cleavage was found to be 0.154.

Take C33G A77C: the self-cleavage stood at 0.115. Then C33G A77G, with 0.138; and C32U C86A, with 0.69. As for C32U G73A, the figure is 0.364; as for C33G A45C, 0.0449; as for C33U A87C, 0.745.

Turning to C32G G81U, the self-cleavage worked out at 0.0639. As for C33U A56U, the figure is 0.758; as for C33U C66U, 0.774; as for C33A G82A, 0.102. In the case of C33A G82U, the self-cleavage was found to be 0.0332.

With C33G G67U, the self-cleavage is 0.111.

With C33G G82U, the self-cleavage is 0. Take C32G U79A: the self-cleavage turned out to be 0.19. Then C32G U79G, with 0.172. Then C33A G35A, with 0.151; and C33G C62A, with 0.225; and C32U G52A, with 0.805. For C32U G52U, the self-cleavage is 0.963. In the case of C32U A77C, the self-cleavage turned out to be 0.162. C33G A71U: the self-cleavage was 0.213. Turning to C33A G40U, the self-cleavage is 0.23.

For the variant C32G C64G, the self-cleavage was 0.0405. Turning to C33G C66A, the self-cleavage turned out to be 0.198.

Turning to C33A C85A, the self-cleavage amounted to 0.18. Then C32U U47C, with 0.764; and C33A U37A, with 0.151.

With C33A A43G, the self-cleavage is 0. Then C33A G81U, with 0.0978. As for C32U U79G, the figure is 0.504. Regarding C32G C58U, the self-cleavage came out at 0.0234. C32G C58G: the self-cleavage amounted to 0.0773. As for C32G G35C, the figure is 0.0386; as for C32G G35U, 0.0583.

As to C32G A51G, the self-cleavage amounted to 0.0665. Turning to C32G G52C, the self-cleavage turned out to be 0.208.

With C33G C48G, the self-cleavage amounted to 0.227.

Regarding C33G G55U, the self-cleavage was 0.204. Then C32U A71G, with 0.903. On to C32U A71U, for which the self-cleavage is 0.565.

As for C32U C61G, the self-cleavage stood at 0.791. In the case of C32U A43G, the self-cleavage worked out at 0.63. Turning to C32U A43U, the self-cleavage amounted to 0.491. Take C33U C48A: the self-cleavage stood at 0.631. As for C33U C63U, the figure is 0.845; as for C33U C41G, 0.372. As for C32U G34A, the figure is 0.0302; as for C32U G34C, 0.0875. Then C32U G34U, with 0.215.

Take C33A A51U: the self-cleavage is 0.373. Then C32G U60G, with 0.196. Then C32G A56U, with 0.0482; and C33G A43G, with 0; and C33G A43C, with 0.0723.

Take C33A A83U: the self-cleavage worked out at 0.217. Then C32U G39U, with 0.486; and C32G G38U, with 0.089.

As for C33G U47G, the self-cleavage was determined as 0.0723.

Turning to C33A A87U, the self-cleavage was 0.226.

On to C33G G50A, for which the self-cleavage is 0.148. In the case of C33G G50C, the self-cleavage stood at 0.246.

In the case of C33A G67U, the self-cleavage was determined as 0.253.

C33A G55C: the self-cleavage was found to be 0.181. As for C32U C85U, the self-cleavage was 0.725. As for C33G A78C, the figure is 0; as for C33U C62G, 0.635. As for C33U C62A, the figure is 0.583; as for C32U G81C, 0.248; as for C33G G38U, 0.246.
